B1: TMEM106C (parent)
chain: FTGRDSITCLTCQGTGYIPTEQVN

Variants of: B1
Test: protein stability index of a GFP-peptide fusion (GPS, HEK-293T) (PSI 1-6); higher = more stable
Settings: c terminus: a fixed tail appended
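Also: lentivirally expressed fusions sorted by FACS into six bins by GFP to DsRed ratio, PSI derived from sequencing read proportions per bin multiplied by bin number.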

In order of falling protein stability index:
1. DTGRDSITCLTCQGTGYIPTEQVN [F1D]  4.88
2. MTGRDSITCLTCQGTGYIPTEQVN [F1M]  4.77
3. TTGRDSITCLTCQGTGYIPTEQVN [F1T]  4.76
4. ATGRDSITCLTCQGTGYIPTEQVN [F1A]  4.7
5. ETGRDSITCLTCQGTGYIPTEQVN [F1E]  4.7
6. QTGRDSITCLTCQGTGYIPTEQVN [F1Q]  4.65
7. PTGRDSITCLTCQGTGYIPTEQVN [F1P]  4.63
8. HTGRDSITCLTCQGTGYIPTEQVN [F1H]  4.52
9. NTGRDSITCLTCQGTGYIPTEQVN [F1N]  4.48
10. FEGRDSITCLTCQGTGYIPTEQVN [T2E]  4.48
11. VTGRDSITCLTCQGTGYIPTEQVN [F1V]  4.43
12. RTGRDSITCLTCQGTGYIPTEQVN [F1R]  4.35
13. STGRDSITCLTCQGTGYIPTEQVN [F1S]  4.33
14. FTGRVSITCLTCQGTGYIPTEQVN [D5V]  4.33
15. FKGRDSITCLTCQGTGYIPTEQVN [T2K]  4.3
16. KTGRDSITCLTCQGTGYIPTEQVN [F1K]  4.29
17. LTGRDSITCLTCQGTGYIPTEQVN [F1L]  4.16
18. GTGRDSITCLTCQGTGYIPTEQVN [F1G]  4.15
19. FDGRDSITCLTCQGTGYIPTEQVN [T2D]  4.1
20. WTGRDSITCLTCQGTGYIPTEQVN [F1W]  4.06
21. FRGRDSITCLTCQGTGYIPTEQVN [T2R]  4.04
22. ITGRDSITCLTCQGTGYIPTEQVN [F1I]  3.94
23. CTGRDSITCLTCQGTGYIPTEQVN [F1C]  3.92
24. FTKRDSITCLTCQGTGYIPTEQVN [G3K]  3.49
25. FTLRDSITCLTCQGTGYIPTEQVN [G3L]  3.45
26. FHGRDSITCLTCQGTGYIPTEQVN [T2H]  3.35
27. FTGRCSITCLTCQGTGYIPTEQVN [D5C]  3.35
28. FNGRDSITCLTCQGTGYIPTEQVN [T2N]  3.32
29. FYGRDSITCLTCQGTGYIPTEQVN [T2Y]  3.3
30. FFGRDSITCLTCQGTGYIPTEQVN [T2F]  3.19
31. FTGDDSITCLTCQGTGYIPTEQVN [R4D]  3.14
32. FTGRWSITCLTCQGTGYIPTEQVN [D5W]  3.14
33. FTGSDSITCLTCQGTGYIPTEQVN [R4S]  3.04
34. FTGRFSITCLTCQGTGYIPTEQVN [D5F]  3
35. FTVRDSITCLTCQGTGYIPTEQVN [G3V]  2.99
36. FMGRDSITCLTCQGTGYIPTEQVN [T2M]  2.95
37. FQGRDSITCLTCQGTGYIPTEQVN [T2Q]  2.91
38. FVGRDSITCLTCQGTGYIPTEQVN [T2V]  2.87
39. FGGRDSITCLTCQGTGYIPTEQVN [T2G]  2.84
40. FTRRDSITCLTCQGTGYIPTEQVN [G3R]  2.84
41. FPGRDSITCLTCQGTGYIPTEQVN [T2P]  2.82
42. FTGRHSITCLTCQGTGYIPTEQVN [D5H]  2.82
43. FAGRDSITCLTCQGTGYIPTEQVN [T2A]  2.81
44. FTMRDSITCLTCQGTGYIPTEQVN [G3M]  2.81
45. FTGNDSITCLTCQGTGYIPTEQVN [R4N]  2.8
46. FTARDSITCLTCQGTGYIPTEQVN [G3A]  2.79
47. FTPRDSITCLTCQGTGYIPTEQVN [G3P]  2.76
48. FTGRMSITCLTCQGTGYIPTEQVN [D5M]  2.73
49. FTERDSITCLTCQGTGYIPTEQVN [G3E]  2.7
50. FTGRLSITCLTCQGTGYIPTEQVN [D5L]  2.66
51. FTGRISITCLTCQGTGYIPTEQVN [D5I]  2.65
52. FCGRDSITCLTCQGTGYIPTEQVN [T2C]  2.63
53. FTGWDSITCLTCQGTGYIPTEQVN [R4W]  2.62
54. FLGRDSITCLTCQGTGYIPTEQVN [T2L]  2.61
55. FTGEDSITCLTCQGTGYIPTEQVN [R4E]  2.59
56. FTGFDSITCLTCQGTGYIPTEQVN [R4F]  2.52
57. FTGIDSITCLTCQGTGYIPTEQVN [R4I]  2.48
58. FTGQDSITCLTCQGTGYIPTEQVN [R4Q]  2.46
59. FTYRDSITCLTCQGTGYIPTEQVN [G3Y]  2.45
60. FTGPDSITCLTCQGTGYIPTEQVN [R4P]  2.41
61. FTIRDSITCLTCQGTGYIPTEQVN [G3I]  2.33
62. FTGMDSITCLTCQGTGYIPTEQVN [R4M]  2.33
63. FTGCDSITCLTCQGTGYIPTEQVN [R4C]  2.32
64. FWGRDSITCLTCQGTGYIPTEQVN [T2W]  2.31
65. FTGRSSITCLTCQGTGYIPTEQVN [D5S]  2.29
66. FTGRQSITCLTCQGTGYIPTEQVN [D5Q]  2.17
67. FTGRTSITCLTCQGTGYIPTEQVN [D5T]  2.15
68. FTNRDSITCLTCQGTGYIPTEQVN [G3N]  2.12
69. FTGKDSITCLTCQGTGYIPTEQVN [R4K]  2.12
70. FTGRPSITCLTCQGTGYIPTEQVN [D5P]  2.12
71. FTQRDSITCLTCQGTGYIPTEQVN [G3Q]  2.09
72. FSGRDSITCLTCQGTGYIPTEQVN [T2S]  2.07
73. FTTRDSITCLTCQGTGYIPTEQVN [G3T]  2.04
74. YTGRDSITCLTCQGTGYIPTEQVN [F1Y]  1.99
75. FTGHDSITCLTCQGTGYIPTEQVN [R4H]  1.98
76. FIGRDSITCLTCQGTGYIPTEQVN [T2I]  1.97
77. FTGRESITCLTCQGTGYIPTEQVN [D5E]  1.96
78. FTGRASITCLTCQGTGYIPTEQVN [D5A]  1.94
79. FTCRDSITCLTCQGTGYIPTEQVN [G3C]  1.89
80. FTGTDSITCLTCQGTGYIPTEQVN [R4T]  1.87
81. FTGRRSITCLTCQGTGYIPTEQVN [D5R]  1.87
82. FTGADSITCLTCQGTGYIPTEQVN [R4A]  1.86
83. FTDRDSITCLTCQGTGYIPTEQVN [G3D]  1.85
84. FTGRKSITCLTCQGTGYIPTEQVN [D5K]  1.84
85. FTGLDSITCLTCQGTGYIPTEQVN [R4L]  1.81
86. FTGGDSITCLTCQGTGYIPTEQVN [R4G]  1.74
87. FTFRDSITCLTCQGTGYIPTEQVN [G3F]  1.7
88. FTHRDSITCLTCQGTGYIPTEQVN [G3H]  1.7
89. FTGVDSITCLTCQGTGYIPTEQVN [R4V]  1.7
90. FTGYDSITCLTCQGTGYIPTEQVN [R4Y]  1.65
91. FTGRNSITCLTCQGTGYIPTEQVN [D5N]  1.56
92. FTGRGSITCLTCQGTGYIPTEQVN [D5G]  1.49
93. FTWRDSITCLTCQGTGYIPTEQVN [G3W]  1.48
94. FTSRDSITCLTCQGTGYIPTEQVN [G3S]  1.46

From the supplement of paper PMC10567573
